Assay results from paper PMC4849863 (Nature structural & molecular biology, 2015).

T1: Cdc45 (S. cerevisiae), subunit of CMG (Saccharomyces cerevisiae, UniProt Q08032 1-650)
T1 sequence (looked up): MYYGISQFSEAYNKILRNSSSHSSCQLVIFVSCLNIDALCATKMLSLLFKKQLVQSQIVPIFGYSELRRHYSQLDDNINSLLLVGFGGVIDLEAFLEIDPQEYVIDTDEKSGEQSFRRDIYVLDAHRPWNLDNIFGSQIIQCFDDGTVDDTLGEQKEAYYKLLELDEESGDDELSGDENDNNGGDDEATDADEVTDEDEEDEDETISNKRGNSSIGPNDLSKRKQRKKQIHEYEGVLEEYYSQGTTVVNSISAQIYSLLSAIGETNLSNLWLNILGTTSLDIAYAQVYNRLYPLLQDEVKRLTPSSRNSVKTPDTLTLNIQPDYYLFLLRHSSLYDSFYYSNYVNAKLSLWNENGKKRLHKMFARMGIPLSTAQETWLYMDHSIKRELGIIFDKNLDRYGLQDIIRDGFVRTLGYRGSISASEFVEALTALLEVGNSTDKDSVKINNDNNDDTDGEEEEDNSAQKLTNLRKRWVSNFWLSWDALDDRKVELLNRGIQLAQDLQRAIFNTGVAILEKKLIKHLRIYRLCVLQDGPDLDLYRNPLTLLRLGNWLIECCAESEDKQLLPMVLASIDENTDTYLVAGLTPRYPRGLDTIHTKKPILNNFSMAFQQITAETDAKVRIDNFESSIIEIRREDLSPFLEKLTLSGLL

T2: Mcm5 (S. cerevisiae), subunit of CMG (Saccharomyces cerevisiae, UniProt P29496 1-775)
T2 sequence (looked up): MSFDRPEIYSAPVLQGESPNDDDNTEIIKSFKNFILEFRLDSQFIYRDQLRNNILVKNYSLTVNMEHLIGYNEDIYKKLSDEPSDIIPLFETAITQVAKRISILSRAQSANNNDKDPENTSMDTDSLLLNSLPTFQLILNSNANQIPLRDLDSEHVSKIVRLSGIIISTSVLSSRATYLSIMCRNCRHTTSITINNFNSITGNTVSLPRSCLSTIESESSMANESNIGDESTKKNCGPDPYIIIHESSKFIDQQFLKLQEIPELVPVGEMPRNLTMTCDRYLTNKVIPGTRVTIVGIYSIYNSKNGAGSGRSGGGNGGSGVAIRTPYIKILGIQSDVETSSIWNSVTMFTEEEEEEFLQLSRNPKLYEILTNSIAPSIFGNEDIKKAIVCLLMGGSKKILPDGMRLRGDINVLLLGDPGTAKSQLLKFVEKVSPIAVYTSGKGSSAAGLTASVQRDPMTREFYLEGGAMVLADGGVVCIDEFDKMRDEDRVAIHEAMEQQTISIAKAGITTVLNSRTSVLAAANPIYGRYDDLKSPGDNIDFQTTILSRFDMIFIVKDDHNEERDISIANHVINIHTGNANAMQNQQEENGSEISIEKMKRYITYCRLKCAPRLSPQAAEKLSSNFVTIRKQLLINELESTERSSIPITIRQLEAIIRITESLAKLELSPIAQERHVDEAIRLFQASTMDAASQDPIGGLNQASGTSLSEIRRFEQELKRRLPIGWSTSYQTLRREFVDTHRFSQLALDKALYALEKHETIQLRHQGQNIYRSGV

B1: Dpb4 (S. cerevisiae), subunit of Pol ε (natural protein, Saccharomyces cerevisiae, UniProt Q04603 1-196, looked up)
chain: MPPKGWRKDAQGNYPTTSYIKEQENITIQDLLFPKSTIVNLAREVPQQSGKKLLINKDASLALQRGATVFVNHLLLFAREIAKSQDKKSCSVDDVLSALDHIGHSALKGPVRDKLDEYQAAVEQRKKEKLDSGEVDADGDIDMGEDKENVPVEKVKEHDEIEEQGDALQDVEESSEKKQKTESQDVETRVQNLEQT
B2: Dpb3 (S. cerevisiae), subunit of Pol ε (natural protein, Saccharomyces cerevisiae, UniProt P27344 1-201, looked up)
chain: MSNLVKEKAPVFPISKVKKIAKCDPEYVITSNVAISATAFAAELFVQNLVEESLVLAQLNSKGKTSLRLSLNSIEECVEKRDNFRFLEDAIKQLKKNSALDKKRELNMQPGRSDQEVVIEEPELHEDDGVEEEEEEDEVSEEEEPVHNEELLDDSKDQQNDKSTRSVASLLSRFQYKSALDVGEHSDSSDIEVDHTKSTDP
B3: 80/75mer unprimed fork (mixed)
DNA 1: CCCCCACCGATGTGGTAGGAAGTGAGAATTGGAGAGTGTGTTTTTTTTTTTTTTTTTTTTTTTTTTTTTTTTTTTTTTTT
DNA 2: TTTTTTTTTTTTTTTTTTTTTTTTTTTTTTTTTTTTTTTTCACACTCTCCAATTCTCACTTCCTACCACATCGGT
B4: GINS heterotetramer (Psf1, Psf2, Psf3, Sld5) of S. cerevisiae CMG (complex, Saccharomyces cerevisiae)
chain 1: MYGDLGNKLVLEAKRTKQLYARSNQDVNLPMYHEDIIRNILKEVSNLRKNTEYLKEQQQLGMLDDKVAKCQYFVTLLCMERNKRCLLAYQRLRTDILDSMAWNNNGLDLMSSITFSQQDTNNLSHQEQEYLKEYCDLITDLKSGDLVDIDLSGSLVPPSDVFIDVRVLKDAGEIQTEYGVFNLIKDSQFFVRQSDVERLIQQGYLQKI
chain 2: MSLPAHLQQTFSPEEIQFIVENEPIKIFPRITTRQKIRGDDRGTGNHTRWQLITTDDKALNNMVAMRSTEVVLWIALLLKQQSKCSIVAPQWLTTKELDRKIQYEKTHPDRFSELPWNWLVLARILFNKAKDDFHDPIHELRGKIQDLREIRQIKVLKGLKYLNESHLQLDNLSLLEINELRPFITEIMDKLREIHTASLTAGTENDEEEFNI
chain 3: MGYYDIDDVLADGTEFPCKFQYDIPGLGYLENNPGRPITKNTKLSLPLWLARILAIVGGDEALVDEEPVPFVELLPPDMFSTKVMNAIKTDPVALDLHSINSHFFSLAIKWIMLFSEKELANVVSELLLQRAQELNHHASSLSIDLNADSTGKNSANTNIATSTFLLKLEEMEKEIYKKSHESYKDTKRWMFKK
chain 4: MDINIDDILAELDKETTAVDSTKITQGSSSTTHRDANTIVGSSLDLNDKTQIYVSPQQDFSDLMKSWKNERCSPELLPYPHQLMKRLLNRISMQSQLIENISMGFLDMQNASNANPPMPNESKLPLLCMETELERLKFVIRSYIRCRLSKIDKFSLYLRQLNEDENSLISLTDLLSKDEIKYHDTHSLIWLKLVNDSILKYMPEELQAINDTEGSVNMIDEPDWNKFVFIHVNGPPDGKWNEDPLLQENEFGKPCYTVTIPDLKEEVELTIGSIYVMRYEVIRDLLRDDKVALI
B5: Psf1 (S. cerevisiae), subunit of GINS in CMG (natural protein, Saccharomyces cerevisiae, UniProt Q12488 1-208, looked up)
chain: B4 chain 1
B6: Dpb2 (S. cerevisiae), subunit of Pol ε (natural protein, Saccharomyces cerevisiae, UniProt P24482 1-689, looked up)
chain: MFGSGNVLPVKIQPPLLRPLAYRVLSRKYGLSIKSDGLSALAEFVGTNIGANWRQGPATIKFLEQFAAVWKQQERGLFIDQSGVKEVIQEMKEREKVEWSHEHPIQHEENILGRTDDDENNSDDEMPIAADSSLQNVSLSSPMRQPTERDEYKQPFKPESSKALDWRDYFKVINASQQQRFSYNPHKMQFIFVPNKKQNGLGGIAGFLPDIEDKVQMFLTRYYLTNDRVMRNENFQNSDMFNPLSSMVSLQNELSNTNRQQQSSSMSITPIKNLLGRDAQNFLLLGLLNKNFKGNWSLEDPSGSVEIDISQTIPTQGHYYVPGCMVLVEGIYYSVGNKFHVTSMTLPPGERREITLETIGNLDLLGIHGISNNNFIARLDKDLKIRLHLLEKELTDHKFVILGANLFLDDLKIMTALSKILQKLNDDPPTLLIWQGSFTSVPVFASMSSRNISSSTQFKNNFDALATLLSRFDNLTENTTMIFIPGPNDLWGSMVSLGASGTLPQDPIPSAFTKKINKVCKNVVWSSNPTRIAYLSQEIVIFRDDLSGRFKRHRLEFPFNESEDVYTENDNMMSKDTDIVPIDELVKEPDQLPQKVQETRKLVKTILDQGHLSPFLDSLRPISWDLDHTLTLCPIPSTMVLCDTTSAQFDLTYNGCKVINPGSFIHNRRARYMEYVPSSKKTIQEEIYI

Experiments:
[1] = target: T1, Cdc45 (S. cerevisiae), subunit of CMG; experiment: cross-linking
[2] = target: CMG helicase (Cdc45-Mcm2-7-GINS, 11 subunits) (Saccharomyces cerevisiae, UniProt P29469;P24279;P30665;P29496;P53091;P38132;Q08032;Q12488;P40359;Q12146;Q03406 …); experiment: EMSA
[3] = target: Mcm3 (S. cerevisiae), subunit of CMG (Saccharomyces cerevisiae, UniProt P24279 1-971); experiment: cross-linking
[4] = target: B6; experiment: cross-linking
[5] = target: T2, Mcm5 (S. cerevisiae), subunit of CMG; experiment: cross-linking

Sequence of Mcm3 (S. cerevisiae), subunit of CMG (P24279 whole entry): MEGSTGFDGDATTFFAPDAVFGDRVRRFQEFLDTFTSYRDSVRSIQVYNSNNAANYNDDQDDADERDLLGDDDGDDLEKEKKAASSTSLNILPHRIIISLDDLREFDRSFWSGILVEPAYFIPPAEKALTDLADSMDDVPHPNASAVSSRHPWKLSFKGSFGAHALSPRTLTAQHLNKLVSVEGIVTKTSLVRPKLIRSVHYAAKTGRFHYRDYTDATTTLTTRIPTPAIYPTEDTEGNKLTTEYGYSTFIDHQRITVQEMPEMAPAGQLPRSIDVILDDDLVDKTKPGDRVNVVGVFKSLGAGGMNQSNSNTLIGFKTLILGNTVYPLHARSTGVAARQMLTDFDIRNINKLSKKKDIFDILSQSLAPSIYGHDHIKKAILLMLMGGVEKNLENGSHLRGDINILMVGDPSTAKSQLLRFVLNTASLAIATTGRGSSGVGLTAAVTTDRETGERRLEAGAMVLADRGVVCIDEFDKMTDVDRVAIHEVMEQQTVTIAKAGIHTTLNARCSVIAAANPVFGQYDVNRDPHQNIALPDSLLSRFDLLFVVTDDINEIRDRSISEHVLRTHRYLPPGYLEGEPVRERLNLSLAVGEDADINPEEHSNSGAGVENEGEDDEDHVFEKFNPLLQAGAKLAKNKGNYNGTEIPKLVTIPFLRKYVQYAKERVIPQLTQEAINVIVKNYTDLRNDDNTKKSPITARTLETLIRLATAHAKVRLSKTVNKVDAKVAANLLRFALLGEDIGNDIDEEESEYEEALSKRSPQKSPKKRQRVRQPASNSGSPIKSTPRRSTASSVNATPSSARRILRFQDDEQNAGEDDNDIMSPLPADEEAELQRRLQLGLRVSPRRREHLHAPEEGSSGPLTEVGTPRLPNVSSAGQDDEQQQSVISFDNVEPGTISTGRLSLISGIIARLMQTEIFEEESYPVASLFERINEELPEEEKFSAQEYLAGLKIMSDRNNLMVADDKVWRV

Binder: B1
binding result [1]: binds

Binder: B2
binding result [1]: binds

Binder: B3
binding result [2]: binds

Binder: B4
binding result [3]: binds

Binder: B5
binding result [1]: binds
binding result [4]: binds

Binder: B6
binding result [5]: binds
